In US20210395393A1 (published 2021) one finds EC50 and IC50 data, which are given here for 3 molecules.

Numbering of substitutions follows the chain as printed.

Assay [1] concerns the target T1, recombinant human tPA (rh-tPA: abcam ab92637) (UniProt P00750 36-562). The assay is described as follows: ELISA; Plate 2, cynomolgus serum, 37°C. (In general: An ELISA detects its analyte on a solid surface through an enzyme-linked reagent.)
The target of assay [2] is T1, recombinant human tPA (rh-tPA: abcam …). The assay is described as follows: ELISA; Plate 2, PBS, 4°C.
Assay [3] has the same target. The experiment in a line: ELISA.
The target is the same in assay [4]. The experiment in a line: ELISA; Plate 1, human serum, 37°C.
For assay [5] the target is unchanged. The experiment in a line: ELISA; Plate 1, PBS, 4°C.
The target is the same in assay [6]. The experiment in a line: ELISA. The source holds these as a separate data set.
For assay [7] the target is unchanged. The assay is described as follows: ELISA; Plate 2, mouse serum, 37°C.
Assay [8] has the same target. The assay is described as follows: ELISA; Plate 1, PBS, 37°C.
The target is the same in assay [9]. The assay is described as follows: ELISA; purified Fab.
The target is the same in assay [10]. The assay is described as follows: ELISA; Plate 1, human serum, 37°C. The source holds these as a separate data set.
The target is the same in assay [11]. The experiment in a line: ELISA; Plate 2, PBS, 4°C. The source holds these as a separate data set.
The target is the same in assay [12]. The assay is described as follows: ELISA; Plate 1, PBS, 4°C. The source holds these as a separate data set.
The target is the same in assay [13]. The experiment in a line: ELISA; Plate 2, mouse serum, 37°C. The source holds these as a separate data set.
The target is the same in assay [14]. The experiment in a line: ELISA; Plate 2, mouse serum, 37°C. The source holds these as a separate data set.
The target is the same in assay [15]. The experiment in a line: ELISA; Plate 1, human serum, 37°C. The source holds these as a separate data set.
Assay [16] shares this target. The assay is described as follows: ELISA; Plate 1, PBS, 37°C. The source holds these as a separate data set.
The target is the same in assay [17]. The assay is described as follows: ELISA; Plate 2, cynomolgus serum, 37°C. The source holds these as a separate data set.
The target is the same in assay [18]. The experiment in a line: ELISA; Plate 2, PBS, 4°C. The source holds these as a separate data set.
Assay [19] shares this target. The experiment in a line: ELISA; Plate 1, PBS, 4°C. The source holds these as a separate data set.

T1 sequence (P00750 36-562): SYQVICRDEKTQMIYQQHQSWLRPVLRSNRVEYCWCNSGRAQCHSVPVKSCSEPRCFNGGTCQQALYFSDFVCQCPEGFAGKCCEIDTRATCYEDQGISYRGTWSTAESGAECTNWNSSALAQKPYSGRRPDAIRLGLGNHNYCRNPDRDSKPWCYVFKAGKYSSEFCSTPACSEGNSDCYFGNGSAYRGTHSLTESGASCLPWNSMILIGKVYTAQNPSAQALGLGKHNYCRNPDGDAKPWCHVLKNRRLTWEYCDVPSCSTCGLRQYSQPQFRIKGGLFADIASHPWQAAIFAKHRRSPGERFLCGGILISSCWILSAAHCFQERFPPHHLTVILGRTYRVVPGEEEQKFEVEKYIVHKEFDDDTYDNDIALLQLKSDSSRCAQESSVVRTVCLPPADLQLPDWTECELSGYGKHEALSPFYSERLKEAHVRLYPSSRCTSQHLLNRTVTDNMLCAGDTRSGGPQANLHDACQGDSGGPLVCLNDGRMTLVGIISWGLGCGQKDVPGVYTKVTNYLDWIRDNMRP

B1: TPAi-1 RHP/RKA (antibody, V domains shown)
VH: QVQLVQSGAEVKKPGASVKVSCKASGNTSYWINWVRQATGQGLEWMGRIDPGGGSTGYAQKFQGRVTMTRDTSISTAYMELSSLRSEDTAVYYCASYYYAMAYWGQGTLVTVSS
VL: DVVMTQSPLSLPVTPGEPASISCRSSQSIVHSNGNTYLDWYLQKPGQSPQLLIYKVSNRASGVPDRFSGSGSGTDFTLKISRVEAEDVGVYYCFQGSHVPWTFGGGTKVEIK
As to B1, the EC50 in assay [1] is 0.514 nM; in assay [2], 0.304 nM; in assay [4], 0.404 nM; in [5] it was 0.229 nM; in assay [7], 0.403 nM. For the same molecule, the results for the IC50 in assay [3] and in assay [6] were 0.365 nM and 0.316 nM, respectively.

B2: TPAi-1 RHP/RKA Fab (Fab, V domains shown)
VH: B1 VH
VL: B1 VL
In the case of B2, the concentration for a half-maximal effect (EC50) in assay [8] stood at 2.16 nM; in [10] it was 0.978 nM; in [11], 1.75 nM; in assay [12], 1.45 nM; in [13], 0.966 nM. The IC50 in assay [9] was found to be 1.62 nM.

B3: TPAi-1 RHE/RKA (antibody, V domains shown)
VH: B1 VH with D71N
VL: B1 VL
Consider B3, for which the EC50 is 0.694 nM in assay [14]; 0.647 nM in assay [15]; 0.972 nM in assay [16]; 0.717 nM in [17]; 0.51 nM in assay [18]; 0.596 nM in assay [19].

What is called EC50 is the midpoint of the concentration-response curve. The term IC50 denotes the midpoint of a concentration-inhibition curve.
